Read-outs that look alike come from different tables or passages of the source.

Experimental findings from PMC6435357 are described below.

For Env (BG505.T332N): N197S and N197T, where the note is “N-glycosylation at N195”, the other entry was “decreases”.

On to Env (LAI): N197S/T, for which the other entry (N-glycosylation at N197) was “no change”.

In the case of Env (LAI): D113N, the other entry (N-glycosylation at N113) is reported as “no change”.
